Columns and labels:
[1] = target: M13KO7辅助噬菌体 (丝状噬菌体pVIII蛋白) (M13KO7 helper phage (filamentous phage)) (UniProt P69541); assay: indirect ELISA, plate coated with 1.0×10^9 pfu/mL M13KO7 helper phage, ascites antibody
[2] = target: M13KO7辅助噬菌体 (丝状噬菌体pVIII蛋白) (M13KO7 helper phage (filamentous phage)) (UniProt P69541); assay: indirect ELISA, plate coated with 1.0×10^9 pfu/mL M13KO7 helper phage, purified antibody (1.0 mg/mL stock)

Sequence of UniProt P69541 (P69541 24-73): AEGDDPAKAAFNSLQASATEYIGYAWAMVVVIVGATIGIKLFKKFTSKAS

B1: 丝状噬菌体pVIII蛋白单克隆抗体P8E4 (antibody, V domains shown)
VH: QIQLQQSGAELARPGASVRLSCKRSGYTFTTYWLQWLKQRAGQGLEWIGAIYPGNGDTRYFPNFKGQATLTADRSSSTRYLQLSSLASESSAVYYCASLLRTDFAMDYRGQGTSVTVSS
VL: DIVLTQSPASEAVSLGQRATISCRTSESVDTYAISFIHWYQQKPGWPPKLLIYRASNAESGIPARFAGSGSRPDFTLSIRPVEADDVATYYCQQSDKDPGSFGGGTKLEIK
B1 gave a 效价 (titer, ascites) (fold dilution) [1] of 102000 and a 效价 (titer, purified antibody 1.0 mg/mL) (fold dilution) [2] of 6400.
